Tested on: collagen IV (BD Biosciences)

Substance: activated MMP-9 (Chemicon)
- alignment of liquid crystal on the surface (zymography; enzymatic digestion of the protein substrate): after 30 minutes incubation with 1 pg MMP-9, the collagen IV has been digested and the liquid crystals align on the exposed SAM
